Assay results taken from patent US20140087995A1 (published 2014).
Numbered stars: 1 amine (or outer) side, 2 acyl side, 3 side chain; on linkers, the order of the positions; unused ones are H or OH. Bridge positions count the residues as written; N and C are the ends. Side chains are listed from the residue outwards. Ends that are not written are not given here. * marks the point of attachment. C20 diacid = O=C(O)CCCCCCCCCCCCCCCCCCC(=O)*; γGlu = O=C(O)[C@H](CCC(=O)[*:2])N[*:1]

T1: human calcitonin receptor (human, UniProt P30988 25-474)
T1 construct: whole, on cells; Membranes of a stably transfected BHK cell line (Assay VII); also called hCTR; hCT
T1 sequence (looked up): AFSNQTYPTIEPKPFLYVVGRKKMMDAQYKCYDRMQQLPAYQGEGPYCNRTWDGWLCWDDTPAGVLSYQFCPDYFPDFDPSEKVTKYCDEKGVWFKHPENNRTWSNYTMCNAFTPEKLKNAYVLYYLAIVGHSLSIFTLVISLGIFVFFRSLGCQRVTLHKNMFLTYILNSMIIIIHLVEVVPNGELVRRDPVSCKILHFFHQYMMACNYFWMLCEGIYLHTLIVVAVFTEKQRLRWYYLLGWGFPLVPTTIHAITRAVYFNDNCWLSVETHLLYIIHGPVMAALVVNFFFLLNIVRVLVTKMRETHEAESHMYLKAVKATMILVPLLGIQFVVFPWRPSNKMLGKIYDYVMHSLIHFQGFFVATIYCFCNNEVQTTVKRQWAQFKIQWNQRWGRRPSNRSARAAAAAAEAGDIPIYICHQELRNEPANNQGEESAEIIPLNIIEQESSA

T2: rat calcitonin receptor (rat, UniProt P32214 25-516)
T2 construct: whole, on cells; Membranes of transiently transfected BHK tk'ts 13 cells (Assay VIII); also called rCTR
T2 sequence (looked up): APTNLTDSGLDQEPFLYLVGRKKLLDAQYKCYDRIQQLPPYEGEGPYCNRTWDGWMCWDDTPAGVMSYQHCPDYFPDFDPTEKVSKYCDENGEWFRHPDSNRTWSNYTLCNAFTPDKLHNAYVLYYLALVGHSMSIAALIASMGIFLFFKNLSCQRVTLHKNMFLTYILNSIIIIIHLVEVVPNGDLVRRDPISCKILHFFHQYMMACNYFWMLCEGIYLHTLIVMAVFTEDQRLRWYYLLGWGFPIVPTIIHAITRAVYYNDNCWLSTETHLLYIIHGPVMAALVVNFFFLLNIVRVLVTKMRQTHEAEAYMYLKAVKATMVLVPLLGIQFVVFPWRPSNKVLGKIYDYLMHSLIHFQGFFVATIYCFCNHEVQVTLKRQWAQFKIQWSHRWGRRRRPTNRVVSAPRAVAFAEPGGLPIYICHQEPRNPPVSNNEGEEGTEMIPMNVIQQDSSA

T3: rat amylin receptor (rat calcitonin receptor + rat RAMP 3) (rat, UniProt P32214 25-516; Q9JJ73 23-147)
T3 construct: whole, on cells; Membranes of transiently transfected BHK tk'ts 13 cells (Assay VI); also called rAmylin-R; rat amylin 3(a) receptor
T3 sequence (looked up) 1: T2 sequence (looked up)
T3 sequence (looked up) 2: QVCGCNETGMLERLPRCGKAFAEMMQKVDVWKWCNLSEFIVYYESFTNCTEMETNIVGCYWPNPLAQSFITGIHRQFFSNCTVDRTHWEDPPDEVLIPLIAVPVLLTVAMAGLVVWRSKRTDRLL

B1: N^-1-[(4S)-4-carboxy-4-(19-carboxynonadecanoylamino)butanoyl]-Gly[Arg1,His14,Arg17,Pro21,Pro27,His34]-h-amylin (peptide)
peptide: {C20 diacid-γGlu}-GRCNTATCATQRLAHFLRHSSPNFGAIPSSTNVGHNTY-NH2
modifications: disulfide 3-8
SMILES: CC[C@H](C)[C@H](NC(=O)[C@H](C)NC(=O)CNC(=O)[C@H](Cc1ccccc1)NC(=O)[C@H](CC(N)=O)NC(=O)[C@@H]1CCCN1C(=O)[C@H](CO)NC(=O)[C@H](CO)NC(=O)[C@H](Cc1c[nH]cn1)NC(=O)[C@H](CCCNC(=N)N)NC(=O)[C@H](CC(C)C)NC(=O)[C@H](Cc1ccccc1)NC(=O)[C@H](Cc1c[nH]cn1)NC(=O)[C@H](C)NC(=O)[C@H](CC(C)C)NC(=O)[C@H](CCCNC(=N)N)NC(=O)[C@H](CCC(N)=O)NC(=O)[C@@H](NC(=O)[C@H](C)NC(=O)[C@@H]1CSSC[C@H](NC(=O)[C@H](CCCNC(=N)N)NC(=O)CNC(=O)CC[C@H](NC(=O)CCCCCCCCCCCCCCCCCCC(=O)O)C(=O)O)C(=O)N[C@@H](CC(N)=O)C(=O)N[C@@H]([C@@H](C)O)C(=O)N[C@@H](C)C(=O)N[C@@H]([C@@H](C)O)C(=O)N1)[C@@H](C)O)C(=O)N1CCC[C@H]1C(=O)N[C@@H](CO)C(=O)N[C@@H](CO)C(=O)N[C@H](C(=O)N[C@@H](CC(N)=O)C(=O)N[C@H](C(=O)NCC(=O)N[C@@H](Cc1c[nH]cn1)C(=O)N[C@@H](CC(N)=O)C(=O)N[C@H](C(=O)N[C@@H](Cc1ccc(O)cc1)C(N)=O)[C@@H](C)O)C(C)C)[C@@H](C)O
notes: also called compound 100
B2: N^-1-[(4S)-4-carboxy-4-(19-carboxynonadecanoylamino)butanoyl]-Gly[Arg1,Ala14,Arg17,Pro21,Pro27,His34]-h-amylin (peptide)
peptide: {C20 diacid-γGlu}-GRCNTATCATQRLAAFLRHSSPNFGAIPSSTNVGHNTY-NH2
modifications: disulfide 3-8
SMILES: CC[C@H](C)[C@H](NC(=O)[C@H](C)NC(=O)CNC(=O)[C@H](Cc1ccccc1)NC(=O)[C@H](CC(N)=O)NC(=O)[C@@H]1CCCN1C(=O)[C@H](CO)NC(=O)[C@H](CO)NC(=O)[C@H](Cc1c[nH]cn1)NC(=O)[C@H](CCCNC(=N)N)NC(=O)[C@H](CC(C)C)NC(=O)[C@H](Cc1ccccc1)NC(=O)[C@H](C)NC(=O)[C@H](C)NC(=O)[C@H](CC(C)C)NC(=O)[C@H](CCCNC(=N)N)NC(=O)[C@H](CCC(N)=O)NC(=O)[C@@H](NC(=O)[C@H](C)NC(=O)[C@@H]1CSSC[C@H](NC(=O)[C@H](CCCNC(=N)N)NC(=O)CNC(=O)CC[C@H](NC(=O)CCCCCCCCCCCCCCCCCCC(=O)O)C(=O)O)C(=O)N[C@@H](CC(N)=O)C(=O)N[C@@H]([C@@H](C)O)C(=O)N[C@@H](C)C(=O)N[C@@H]([C@@H](C)O)C(=O)N1)[C@@H](C)O)C(=O)N1CCC[C@H]1C(=O)N[C@@H](CO)C(=O)N[C@@H](CO)C(=O)N[C@H](C(=O)N[C@@H](CC(N)=O)C(=O)N[C@H](C(=O)NCC(=O)N[C@@H](Cc1c[nH]cn1)C(=O)N[C@@H](CC(N)=O)C(=O)N[C@H](C(=O)N[C@@H](Cc1ccc(O)cc1)C(N)=O)[C@@H](C)O)C(C)C)[C@@H](C)O
B3: N^ε1-[(4S)-4-carboxy-4-[[(4S)-4-carboxy-4-(19-carboxynonadecanoylamino)butanoyl]amino]butanoyl]-[His14,Arg17,Pro21,Pro27]-h-amylin (peptide)
peptide: K([γGlu-γGlu-C20 diacid])CNTATCATQRLAHFLRHSSPNFGAIPSSTNVGSNTY-NH2
modifications: disulfide 2-7; N-terminus assumed
SMILES: CC[C@H](C)[C@H](NC(=O)[C@H](C)NC(=O)CNC(=O)[C@H](Cc1ccccc1)NC(=O)[C@H](CC(N)=O)NC(=O)[C@@H]1CCCN1C(=O)[C@H](CO)NC(=O)[C@H](CO)NC(=O)[C@H](Cc1c[nH]cn1)NC(=O)[C@H](CCCNC(=N)N)NC(=O)[C@H](CC(C)C)NC(=O)[C@H](Cc1ccccc1)NC(=O)[C@H](Cc1c[nH]cn1)NC(=O)[C@H](C)NC(=O)[C@H](CC(C)C)NC(=O)[C@H](CCCNC(=N)N)NC(=O)[C@H](CCC(N)=O)NC(=O)[C@@H](NC(=O)[C@H](C)NC(=O)[C@@H]1CSSC[C@H](NC(=O)[C@@H](N)CCCCNC(=O)CC[C@H](NC(=O)CC[C@H](NC(=O)CCCCCCCCCCCCCCCCCCC(=O)O)C(=O)O)C(=O)O)C(=O)N[C@@H](CC(N)=O)C(=O)N[C@@H]([C@@H](C)O)C(=O)N[C@@H](C)C(=O)N[C@@H]([C@@H](C)O)C(=O)N1)[C@@H](C)O)C(=O)N1CCC[C@H]1C(=O)N[C@@H](CO)C(=O)N[C@@H](CO)C(=O)N[C@H](C(=O)N[C@@H](CC(N)=O)C(=O)N[C@H](C(=O)NCC(=O)N[C@@H](CO)C(=O)N[C@@H](CC(N)=O)C(=O)N[C@H](C(=O)N[C@@H](Cc1ccc(O)cc1)C(N)=O)[C@@H](C)O)C(C)C)[C@@H](C)O
notes: also called compound 92
B4: N^ε1-[(4S)-4-carboxy-4-[[(4S)-4-carboxy-4-(19-carboxynonadecanoylamino)butanoyl]amino]butanoyl]-[Ser14,Arg17,Pro21,Pro27,Pro34,Glu35]-h-amylin (peptide)
peptide: K([γGlu-γGlu-C20 diacid])CNTATCATQRLASFLRHSSPNFGAIPSSTNVGPETY-NH2
modifications: disulfide 2-7; N-terminus assumed
SMILES: CC[C@H](C)[C@H](NC(=O)[C@H](C)NC(=O)CNC(=O)[C@H](Cc1ccccc1)NC(=O)[C@H](CC(N)=O)NC(=O)[C@@H]1CCCN1C(=O)[C@H](CO)NC(=O)[C@H](CO)NC(=O)[C@H](Cc1c[nH]cn1)NC(=O)[C@H](CCCNC(=N)N)NC(=O)[C@H](CC(C)C)NC(=O)[C@H](Cc1ccccc1)NC(=O)[C@H](CO)NC(=O)[C@H](C)NC(=O)[C@H](CC(C)C)NC(=O)[C@H](CCCNC(=N)N)NC(=O)[C@H](CCC(N)=O)NC(=O)[C@@H](NC(=O)[C@H](C)NC(=O)[C@@H]1CSSC[C@H](NC(=O)[C@@H](N)CCCCNC(=O)CC[C@H](NC(=O)CC[C@H](NC(=O)CCCCCCCCCCCCCCCCCCC(=O)O)C(=O)O)C(=O)O)C(=O)N[C@@H](CC(N)=O)C(=O)N[C@@H]([C@@H](C)O)C(=O)N[C@@H](C)C(=O)N[C@@H]([C@@H](C)O)C(=O)N1)[C@@H](C)O)C(=O)N1CCC[C@H]1C(=O)N[C@@H](CO)C(=O)N[C@@H](CO)C(=O)N[C@H](C(=O)N[C@@H](CC(N)=O)C(=O)N[C@H](C(=O)NCC(=O)N1CCC[C@H]1C(=O)N[C@@H](CCC(=O)O)C(=O)N[C@H](C(=O)N[C@@H](Cc1ccc(O)cc1)C(N)=O)[C@@H](C)O)C(C)C)[C@@H](C)O
notes: also called compound 120

Each binder was assayed against T1, human calcitonin receptor (assay: ratio IC50 human calcitonin receptor / IC50 human amylin receptor (reference)).
Method in brief: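 IC₅₀ values were derived by one-site competition analysis of SPA counts. Cell membranes (35 ng/μL) with SPA beads were incubated with test compounds for 120 min at 25° C in Hepes buffer, pH 7.4, containing CaCl2, MgCl₂, OA and Tween20.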
B1 was tested, and the “Ratio hCT/hAmylin binding” value was 65.3.
For {C20 diacid-γGlu}-GRCNTATCATQRLAAFLRHSSPNFGAIPSSTNVGPNTY-NH2 (disulfide 3-8), the “Ratio hCT/hAmylin binding” value was 26.5.
In the case of B2, the “Ratio hCT/hAmylin binding” value is reported as 68.6.
K([γGlu-γGlu-C20 diacid])CNTATCATQRLAEFLRHSSPNFGAILSSTPVGPETY-NH2 (disulfide 2-7 (inferred)) was tested, and the “Ratio hCT/hAmylin binding” value was 22.6.
For B3, the “Ratio hCT/hAmylin binding” value was 145.
B4 was tested, and the “Ratio hCT/hAmylin binding” value was 45.3.

What follows are binders tested against T2, rat calcitonin receptor (assay: ratio IC50 rat calcitonin receptor / IC50 rat amylin receptor (reference)).
In the case of B1, the “Ratio rCT/rAmylin binding” value is reported as 27.7.
With {C20 diacid-γGlu}-GRCNTATCATQRLAAFLRHSSPNFGAIPSSTNVGPNTY-NH2 (disulfide 3-8) the “Ratio rCT/rAmylin binding” value was 129.
With B2 the “Ratio rCT/rAmylin binding” value was 60.9.
In the case of K([γGlu-γGlu-C20 diacid])CNTATCATQRLAEFLRHSSPNFGAILSSTPVGPETY-NH2 (disulfide 2-7 (inferred)), the “Ratio rCT/rAmylin binding” value is reported as 74.7.
With B3 the “Ratio rCT/rAmylin binding” value was 156.
With B4 the “Ratio rCT/rAmylin binding” value was 868.

What follows are binders tested against T2, rat calcitonin receptor (assay: SPA competition with 125I-calcitonin, membranes of BHK cells with rat calcitonin receptor (Assay VIII)).
Binder B1 has an IC50 of 311 nM.
For {C20 diacid-γGlu}-GRCNTATCATQRLAAFLRHSSPNFGAIPSSTNVGPNTY-NH2 (disulfide 3-8), the IC50 was 56.3 nM.
B2 gave an IC50 of 492 nM.
K([γGlu-γGlu-C20 diacid])CNTATCATQRLAEFLRHSSPNFGAILSSTPVGPETY-NH2 (disulfide 2-7 (inferred)) showed an IC50 of 33.5 nM.
In the case of B3, the IC50 is reported as 104 nM.
Binder B4 has an IC50 of 140 nM.

What follows are binders tested against T3, rat amylin receptor (rat calcitonin …) (assay: SPA competition with 125I-rat amylin, membranes of BHK cells with rat calcitonin receptor + rat RAMP3 (Assay VI)).
B1 gave an IC50 of 11.2 nM.
For {C20 diacid-γGlu}-GRCNTATCATQRLAAFLRHSSPNFGAIPSSTNVGPNTY-NH2 (disulfide 3-8), the IC50 was 0.436 nM.
B2 was tested, and the IC50 was 8.07 nM.
With K([γGlu-γGlu-C20 diacid])CNTATCATQRLAEFLRHSSPNFGAILSSTPVGPETY-NH2 (disulfide 2-7 (inferred)) the IC50 was 0.449 nM.
Work on B3 yielded an IC50 of 0.668 nM.
With B4 the IC50 was 0.161 nM.
